T1: human Tom70 (residues 108–608) (human, UniProt O94826 108-608)
T1 construct: human Tom70 (translocase of outer mitochondria membrane 70), residues 108-608; N-terminal Avi tag, His6 tag, (GGS)5 linker and TEV site removed by TEV protease; also called hTom70; free Tom70; source: E. coli BL21 (DE3), purified (Ni-NTA, TEV cleavage, second Ni column, SEC); not shown: Avi, N-terminal, cleaved; His6, N-terminal, cleaved
T1 sequence: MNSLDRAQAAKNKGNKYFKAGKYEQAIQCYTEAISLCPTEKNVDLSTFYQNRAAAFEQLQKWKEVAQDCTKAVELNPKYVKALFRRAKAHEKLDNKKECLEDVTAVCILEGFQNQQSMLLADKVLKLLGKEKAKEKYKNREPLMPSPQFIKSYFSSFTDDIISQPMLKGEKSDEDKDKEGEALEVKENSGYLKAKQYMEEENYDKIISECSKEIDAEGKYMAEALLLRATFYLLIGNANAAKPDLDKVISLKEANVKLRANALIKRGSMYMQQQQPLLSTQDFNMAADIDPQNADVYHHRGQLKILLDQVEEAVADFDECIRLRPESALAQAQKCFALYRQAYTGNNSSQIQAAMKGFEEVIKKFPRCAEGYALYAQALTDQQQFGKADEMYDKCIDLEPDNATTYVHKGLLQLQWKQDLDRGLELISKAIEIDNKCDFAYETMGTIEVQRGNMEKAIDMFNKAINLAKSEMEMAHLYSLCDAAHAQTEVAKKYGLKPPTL

T2: ^19F-labeled Tom70 (5-fluoro-tryptophan, residues 108–608) (human, UniProt O94826 108-608, 5-fluoro-tryptophan at W169 and W523)
T2 construct: human Tom70, residues 108-608; also called ^19F Tom70; 5F-Trp Tom70; source: E. coli BL21(DE3) in M9 media supplemented with 5-fluoro-tryptophan, purified as unlabeled Tom70; not shown: Avi, N-terminal, cleaved; His6, N-terminal, cleaved
T2 sequence: T1 sequence

B1: Orf9b_(Helix) peptide (peptide)
peptide: IILRLGSPLSLNMARKTLNSLEDKAFQLTPIAVQY
notes: SARS-CoV-2 Orf9b residues 44-77, the helical region seen in the Tom70-Orf9b structure; tyrosine added to aid with quantification
B2: Tom70:Orf9b_(Helix) complex (complex)
chain 1: T1 sequence
chain 2: B1 peptide
notes: human Tom70, residues 108-608; SARS-CoV-2 Orf9b residues 44-77; tyrosine added to aid with quantification; not shown: Avi, N-terminal, cleaved; His6, N-terminal, cleaved

Legend:
Conditions in all cases: both partners purified
[1] = target: T1, human Tom70 (residues 108–608); experiment: ITC; Orf9b_(Helix) (120 μM) titrated into 15 μM Tom70 or Tom70:Hsp90_(EEVD) complex (15 μM Tom70: 400 μM Hsp90_(EEVD)); 20°C; 20 mM sodium phosphate pH 7, 100 mM NaCl, 2 mM TCEP; 1:1 binding model
[2] = target: T3, Tom70:Hsp90_(EEVD) complex (human, UniProt O94826 108-608, C-terminus not amidated (free carboxyl)); experiment: as above
T3 construct: human Tom70, residues 108-608; tyrosine added to aid with quantification; C-terminal residues 724-732 of human Hsp90α; also called Tom70 complexed with Hsp90_(EEVD) peptide; not shown: Avi, N-terminal, cleaved; His6, N-terminal, cleaved

[3] = target: T2, ^19F-labeled Tom70 …; experiment: NMR titration; […]) 130 μM, […]) 400 μM, […]; 25°C; […]
[4] = target: T4, human Hsp90α (residues 1–732), full-length (human, UniProt P07900 1-732); experiment: ITC; […] (400 μM), […] (400 μM), […] (500 μM) […] (20 μM); 20°C; 20 mM sodium phosphate pH 8, 150 mM NaCl, 2 mM TCEP, 10% glycerol; 1:1 binding model
T4 construct: human Hsp90α, residues 1-732; also called full-length Hsp90; heat shock protein 90; source: E. coli BL21 Star (DE3) pLysS, purified (Ni-INDIGO, TEV cleavage, second Ni-INDIGO, HiPrep Q); not shown: Avi, N-terminal, cleaved; His6, N-terminal, cleaved

Row | Binder | binding result [1] | binding result [2] | binding result [3] | fold by which the inhibitory effect of full-length Orf9b exceeds that of Orf9b_(Helix) [4] [fold]
1 | B1 | binds | binds | binds | 
2 | B2 |  |  |  | 2.4
